The source of these data is patent US6828106 (dated 2004).

Where no end group is shown, it is not given here. fluorescein or rhodamine = not defined here

Data set [1] addresses T1, peptide C labelled with rhodamine (CR) (not fully specified; N-terminal acetyl; C-terminal amide; labelled with rhodamine (or vice versa with fluorescein)).
T1 construct: Artificial designer peptide, one partner of a heterodimeric coiled coil
T1 peptide: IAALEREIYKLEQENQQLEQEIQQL
The data set is described as follows: FRET between fluorescein- and rhodamine-labelled peptides.

Data set [2] concerns the molecule itself. In words: FRET between the fluorescein- and rhodamine-labelled forms of the same peptide (homodimer).
For data set [3], the target named is T2, reporter peptide 1 (Example 10), labeled with fluorescein (labeled with fluorescein (site not stated)).
T2 construct: Heterodimer partner in the thrombin assay
T2 peptide: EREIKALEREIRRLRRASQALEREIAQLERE
In words: FRET (fluorescein/rhodamine), 5 µM total peptide, 1:1.

Data set [4] deals with the molecule itself. The data set is described as follows: FRET (fluorescein/rhodamine) and fluorescence polarization (fluorescein/biotin), 6 µM total peptide, 6:1. (Polarisation of emitted light reports the rotation of a fluorescent probe.)
Data set [5] deals with T3, peptide 1 (Example 8), labeled with fluorescein (labeled with fluorescein (site not stated)).
T3 construct: Heterodimer partner in the chymotrypsin assays
T3 peptide: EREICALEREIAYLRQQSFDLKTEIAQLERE
The data set is described as follows: FRET (fluorescein/rhodamine) and fluorescence polarization (fluorescein/biotin with streptavidin), 6 µM total peptide, 1:1.

B1: peptide B labelled with fluorescein (BF) (peptide)
peptide: IAALRERICYLRERNQQLRQRIQQL
modifications: not fully specified; also: fluorescein label, site not given here
notes: Artificial designer peptide, one partner of a heterodimeric coiled coil
For B1, the binding result in data set [1] is “binds”.

B2: Peptide 2 (Example 3, TEV protease cleavage site) (peptide)
peptide: RMKQLEDKVENLYSQSYHLENEVAC(fluorescein or rhodamine)LKKLVGER
modifications: reading uncertain
notes: GCN4-derived homodimeric reporter; The fluorescein- and rhodamine-labelled forms are written as one molecule
Regarding B2, the binding result in data set [2] is “binds”.

B3: Peptide 4 (Example 5, caspase 2, 3, 7 site) (peptide)
peptide: RMKQLEDKVEELLDENDHLENEVACLKKLVGER
modifications: also: fluorescein or rhodamine label, site not given here
notes: GCN4-derived homodimeric reporter; Both labelled forms are written as one molecule
For B3, in data set [2], the binding result is recorded as “binds”.

B4: reporter peptide 2 (Example 10), labeled with rhodamine (peptide)
peptide: LRQRIQCLRYRIRRLRRASQALRQRIAQLKQR
modifications: also: rhodamine label, site not given here
notes: Heterodimer partner in the thrombin assay
For B4, in data set [3], the binding result is recorded as “binds”.

B5: reporter peptide (Example 9, TEV) (peptide)
peptide: KGRMRCLEDRVENLYSQSYHLENEVARLRRLVGELAAK
modifications: not fully specified; also: homodimer
notes: Forms a homodimer; All labelled forms are written as one molecule (6:1 ratio R:F or biotin:F)
In the case of B5, in data set [4], the binding result is “binds”.

B6: peptide 2 (Example 8), labeled with rhodamine (FRET) or biotin (FP) (peptide)
peptide: LRQRIQCLRQKIAYLRQQSFDLKTQIAQLRQR
modifications: also: rhodamine or biotin label, site not given here
notes: Heterodimer partner in the chymotrypsin assays; Both labelled forms are written as one molecule
Regarding B6, the binding result in data set [5] is listed as “binds”.
